Substitutions are numbered along the chain they refer to. Names and notes keep the numbering of the source.
Tests used:
[1] = target: TrkA of NGF-responsive neurons from embryonic chick sympathetic ganglia (chick)
[2] = target: TrkB of BDNF-responsive neurons from embryonic chick nodose ganglia (chick)
[3] = target: T1, TrkB (Rattus norvegicus (Rat), UniProt Q63604); assay: competition with 125I-BDNF on rtrkB-3T3 cells
Experimental: (§1) Purified mouse NGF and BDNF were labeled with ^125I by the lactoperoxidase method to an average specific activity of 1×10^8 cpm/μg. For the labeling of BDNF, the modifications described by Rodriguez-Tebar et al. ([Rodriguez-Tebar, 1992]) were used. NIH3T3 fibroblasts expressing TrkA, TrkB or TrkC were used at 2 to 1–×10^6 cells/ml. Steady state binding was measured in competition assays performed at 4° C. using 1.5×10^-9M ^125I-BDNF and serial dilutions of conditioned media containing equivalent amounts of wt or mutated NGF protein. All components were added at the same time and the cells were collected by centrifugation after equilibrium was reached (90–120 minutes incubation). Cell pellets were then counted in a gamma counter. […] Nonspecific binding was measured in a parallel incubation to which 300 to 1000-fold molar excess of unlabelled purified factor was added. All results were corrected for this nonspecific binding, which was less than 10% (for NGF) or 30% (for BDNF) of total binding. The concentration of each chimeric, mutant and wild type molecule that gave 50% binding (IC$50$) was determined, and relative binding was calculated using the relationship:(mutant IC$50$/wild type IC$50$)X 100.

[4] = target: T2, TrkA (Rattus norvegicus (Rat), UniProt P35739); assay: competition with 125I-NGF on rtrkA-3T3 cells, COS conditioned medium, relative binding from IC50
Experimental: (§2) FIG. 2A–D. TrkA receptor binding, receptor phosphorylation and biological activity of wild-type (wt) and chimeric molecules (see SEQ. ID. NOS. 1 and 2 for all chimeric constructions). […] Each point represents the mean of triplicate determinations. Standard deviation was at or generally below ±10%. (B) and (C) Tyrosine phosphorylation of TrkA receptors stimulated by wt NGF, wt BDNF and chimeric molecules. rtrkA-3T3 cells were treated with 100 ng/ml of the indicated recombinant proteins and assayed for tyrosine phosphorylation. Media from mock-transfected COS cells was used as negative control (CONTROL). Arrowhead indicates the migration of phosphorylated TrkA (p140^trk). The faster migrating band correspond to constituitively phosphorylated p140^trk precursors ([Kaplan, 1991]). (D) Serial dilutions of transfected COS cell conditioned medium containing equal amounts of wt and chimeric factors were assayed for their ability to stimulate neurite outgrowth from E8 chick sympathetic ganglia. Data from three determinations varied by ±20% of the average values reported here. Key symbols as in (A).
Purified mouse NGF and BDNF were labeled with ^125I by the lactoperoxidase method to an average specific activity of 1×10^8 cpm/μg. For the labeling of BDNF, the modifications described by Rodriguez-Tebar et al. ([Rodriguez-Tebar, 1992]) were used. NIH3T3 fibroblasts expressing TrkA, TrkB or TrkC were used at 2 to 1–×10^6 cells/ml. […] All components were added at the same time and the cells were collected by centrifugation after equilibrium was reached (90–120 minutes incubation). Cell pellets were then counted in a gamma counter.

[5] = target: T1, TrkB; assay: competition with 125I-BDNF on rtrkB-3T3 cells, COS conditioned medium, relative binding from IC50
Experimental: as §1

[6] = target: T2, TrkA; assay: competition with 125I-NGF on rtrkA-3T3 cells
Experimental: as §1, with “Steady state binding was measured in competition assays performed at 4° C. using 1.5×10^-9M ^125I-BDNF and serial dilutions of conditioned media containing equivalent amounts of wt or mutated NGF protein.” left out
Figure 3A: FIG. 3A&B. NGF variable regions I, IV and V partially restore TrkA binding and biological activity of the NH_2+I+III+IV+V chimeric molecule (see SEQ. ID. NOS. 1 and 2 for all chimera construction). […] Each point represents the mean of triplicate determinations.

[7] = target: TrkB (Rattus norvegicus (Rat)) (UniProt Q63604)
[8] = target: T2, TrkA; assay: competition with 125I-NGF on rtrkA-3T3 cells; remark: listed apart in the source
Experimental: as §2
Purified mouse NGF and BDNF were labeled with ^125I by the lactoperoxidase method to an average specific activity of 1×10^8 cpm/μg. For the labeling of BDNF, the modifications described by Rodriguez-Tebar et al. ([Rodriguez-Tebar, 1992]) were used. […] Cell pellets were then counted in a gamma counter.

Sequence of TrkB of BDNF-responsive neurons from embryonic chick nodose ganglia (chick) (Q91987 whole entry): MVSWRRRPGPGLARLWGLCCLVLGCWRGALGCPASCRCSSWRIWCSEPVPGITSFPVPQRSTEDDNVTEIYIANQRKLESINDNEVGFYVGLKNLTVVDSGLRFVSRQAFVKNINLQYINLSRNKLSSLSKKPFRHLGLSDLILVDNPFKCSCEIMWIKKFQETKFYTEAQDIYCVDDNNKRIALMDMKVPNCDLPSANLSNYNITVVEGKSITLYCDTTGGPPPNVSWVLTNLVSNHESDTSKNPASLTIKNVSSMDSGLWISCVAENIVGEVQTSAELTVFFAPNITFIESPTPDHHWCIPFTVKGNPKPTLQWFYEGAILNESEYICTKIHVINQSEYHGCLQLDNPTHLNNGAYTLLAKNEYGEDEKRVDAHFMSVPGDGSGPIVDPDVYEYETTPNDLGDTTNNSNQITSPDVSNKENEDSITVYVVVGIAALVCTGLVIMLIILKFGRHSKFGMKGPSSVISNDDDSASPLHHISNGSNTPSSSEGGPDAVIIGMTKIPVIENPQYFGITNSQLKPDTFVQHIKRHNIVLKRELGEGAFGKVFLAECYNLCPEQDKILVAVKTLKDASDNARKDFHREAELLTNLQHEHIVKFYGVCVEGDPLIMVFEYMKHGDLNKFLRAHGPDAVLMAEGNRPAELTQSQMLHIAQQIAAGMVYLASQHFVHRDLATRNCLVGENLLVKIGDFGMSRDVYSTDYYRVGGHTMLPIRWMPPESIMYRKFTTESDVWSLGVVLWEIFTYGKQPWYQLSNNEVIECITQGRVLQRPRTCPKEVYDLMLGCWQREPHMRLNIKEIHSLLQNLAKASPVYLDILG

B1: wild-type rat nerve growth factor (ligand)
chain: SSTHPVFHMGEFSVCDSVSVWVGDKTTATDIKGKEVTVLGEVNINNSVFKQYFFETKCRAPNPVESGCRGIDSKHWSNYCTTTHTFVKALTTDDKQAAWRFIRIDTACVCVLSRKAARRG
[1]
  Biological Activity % of wild type (neurite outgrowth from explants of embryonic sympathetic ganglia) (% of wild type): 100
[2]
  Biological Activity % of wild type (maximal cell survival of dissociated embryonic nodose neurons) (% of wild type): < 5
[3]
  binding result: no binding (tested: <0,2 % of wild type)
[4]
  Receptor Binding % of wild type: 100 % of wild type
[5]
  Receptor Binding % of wild type: < 0.2 % of wild type

B2: NGF mutant I31A (ligand)
chain: B1 chain with I31A
[1]
  Biological Activity % of wild type (neurite outgrowth from explants of embryonic sympathetic ganglia) (% of wild type): 25
[6]
  fold reduction in receptor binding against wt NGF: 4 fold
[4]
  Receptor Binding % of wild type: 20 % of wild type

B3: wild-type brain-derived neurotrophic factor (ligand)
chain: HSDPARRGELSVCDSISEWVTAADKKTAVDMSGGTVTVLEKVPVSKGQLKQYFYETKCNPMGYTKEGCRGIDKRHWSNQCRTTQSYVRALTMDSKKRIGWRFIRIDTSCVCTLTIKRGR
[1]
  Biological Activity % of wild type (neurite outgrowth from explants of embryonic sympathetic ganglia) (% of wild type): < 0.2
[2]
  Biological Activity % of wild type (maximal cell survival of dissociated embryonic nodose neurons) (% of wild type): 100
[7]
  EC50 of TrkB tyrosine phosphorylation: 5 ng/mL
[8]
  binding result: no binding (tested: <0,2 % of wild type)
[4]
  Receptor Binding % of wild type: < 0.2 % of wild type
[5]
  Receptor Binding % of wild type: 100 % of wild type

From US5488099, “Multifunctional chimeric neurotrophic factors” (dated 1996)
